Assay results published in the supplement of paper PMC11246515.
± gives the standard deviation of the averaged measurements.

Assay: total protein half-life in vivo (active degradation + dilution); higher = more stable protein
[1] = E. coli NCM3722 delta-smpB, growth: N-lim chemostat, doubling time 6 h
[2] = wild type E. coli NCM3722, growth: C-lim chemostat, doubling time 6 h
[3] = wild type E. coli NCM3722, growth: N-lim chemostat, doubling time 6 h
[4] = wild type E. coli NCM3722, growth: P-lim chemostat, doubling time 6 h
[5] = wild type E. coli NCM3722, growth: P-lim chemostat, doubling time 12 h
[6] = E. coli NCM3722 delta-clpP delta-lon delta-hslV, growth: N-lim chemostat, doubling time 6 h
[7] = E. coli NCM3722 delta-lon, growth: N-lim chemostat, doubling time 6 h
[8] = wild type E. coli NCM3722, growth: C-lim chemostat, doubling time 3 h
[9] = wild type E. coli NCM3722, growth: C-lim chemostat, doubling time 12 h
[10] = E. coli NCM3722 delta-clpP, growth: N-lim chemostat, doubling time 6 h
[11] = E. coli NCM3722 delta-hslV, growth: N-lim chemostat, doubling time 6 h
[12] = wild type E. coli NCM3722, growth: N-lim chemostat, doubling time 12 h

Row | Sequence | total protein half-life in vivo [1] [h] | total protein half-life in vivo [2] [h] | total protein half-life in vivo [3] [h] | total protein half-life in vivo [4] [h] | total protein half-life in vivo [5] [h] | total protein half-life in vivo [6] [h] | total protein half-life in vivo [7] [h] | total protein half-life in vivo [8] [h] | total protein half-life in vivo [9] [h] | total protein half-life in vivo [10] [h] | total protein half-life in vivo [11] [h] | total protein half-life in vivo [12] [h]
1 | MSRINKFVLTVSLLIFIMISAVACGIYTQMVKERVYSLKQSVIDTAFAVANIAEYRRSVAIDLINTLNPTEEQLLVGLRTAYADSVSPSYLYDVGPYLISSDECIQVKEFEKNYCADIMQVVKYRHVKNTGFISFDGKTFVYYLYPVTHNRSLIFLLGLERFSLLSKSLAMDSENLMFSLFKNGKPVTGDEYNAKNAIFTVSEAMEHFAYLPTGLYVFAYKKDVYLRVCTLIIFFAALVAVISGASCLYLVRRVINRGIVEKEAIINNHFERVLDGGLFFSAADVKKLYSMYNSAFLDDLTKAMGRKSFDEDLKALPEKGGYLCLFDVDKFKNINDTFGHLLGDEVLMKVVKILKSQIPVDKGKVYRFGGDEFAVIYTGGTLEELLSILKEIVHFQVGSINLSTSIGVAHSNECPTVERLKMLADERLYKSKKNGRAQISWQ | 5.51 ± 1.1 | 5.63 ± 1.6 | 6.47 ± 1.1 | 6.08 ± 0.31 | 13.1 ± 1.4 |  |  |  |  |  |  | 
2 | MSRPTIIINDLDAERIDILLEQPAYAGLPIADALNAELDRAQMCSPEEMPHDVVTMNSRVKFRNLSDGEVRVRTLVYPAKMTDSNTQLSVMAPVGAALLGLRVGDSIHWELPGGVATHLEVLELEYQPEAAGDYLL [P0AFW4] |  | 1.55 ± 0.086 | 1.43 ± 0.68 | 1.36 | 2.53 | 4.22 ± 0.14 | 1.49 | 1.02 ± 0.099 | 2.08 ± 0.0038 |  |  | 
3 | MSRRLRRTKIVTTLGPATDRDNNLEKVIAAGANVVRMNFSHGSPEDHKMRADKVREIAAKLGRHVAILGDLQGPKIRVSTFKEGKVFLNIGDKFLLDANLGKGEGDKEKVGIDYKGLPADVVPGDILLLDDGRVQLKVLEVQGMKVFTEVTVGGPLSNNKGINKLGGGLSAEALTEKDKADIKTAALIGVDYLAVSFPRCGEDLNYARRLARDAGCDAKIVAKVERAEAVCSQDAMDDIILASDVVMVARGDLGVEIGDPELVGIQKALIRRARQLNRAVITATQMMESMITNPMPTRAEVMDVANAVLDGTDAVMLSAETAAGQYPSETVAAMARVCLGAEKIPSINVSKHRLDVQFDNVEEAIAMSAMYAANHLKGVTAIITMTESGRTALMTSRISSGLPIFAMSRHERTLNLTALYRGVTPVHFDSANDGVAAASEAVNLLRDKGYLMSGDLVIVTQGDVMSTVGSTNTTRILTVE | 5.32 ± 0.27 | 5.989 ± 0.05 | 5.4882 ± 0.00083 | 5.96 ± 0.26 | 13.1 ± 0.68 | 5.558 ± 0.04 | 5.61 ± 0.28 | 3.02 ± 0.11 | 11.4 ± 0.78 | 5.39 ± 0.19 | 5.15 ± 0.41 | 9.898 ± 0.052
4 | MSSFDYLKTAIKQQGCTLQQVADASGMTKGYLSQLLNAKIKSPSAQKLEALHRFLGLEFPRQKKTIGVVFGKFYPLHTGHIYLIQRACSQVDELHIIMGFDDTRDRALFEDSAMSQQPTVPDRLRWLLQTFKYQKNIRIHAFNEEGMEPYPHGWDVWSNGIKKFMAEKGIQPDLIYTSEEADAPQYMEHLGIETVLVDPKRTFMSISGAQIRENPFRYWEYIPTEVKPFFVRTVAILGGESSGKSTLVNKLANIFNTTSAWEYGRDYVFSHLGGDEIALQYSDYDKIALGHAQYIDFAVKYANKVAFIDTDFVTTQAFCKKYEGREHPFVQALIDEYRFDLVILLENNTPWVADGLRSLGSSVDRKEFQNLLVEMLEENNIEFVRVEEEDYDSRFLRCVELVREMMGEQR | 5.71 ± 0.23 | 5.76 ± 0.61 | 5.3 ± 0.24 | 5.97 ± 0.31 | 10.8 ± 0.14 | 5.91 ± 0.15 | 6.4 ± 0.35 | 2.975 ± 0.013 | 10.5 ± 1.5 |  | 5.88 ± 0.4 | 10.6 ± 1.9
5 | MSSISLIQPDRDLFSWPQYWAACFGPAPFLPMSREEMDQLGWDSCDIILVTGDAYVDHPSFGMAICGRMLEAQGFRVGIIAQPDWSSKDDFMRLGKPNLFFGVTAGNMDSMINRYTADRRLRHDDAYTPDNVAGKRPDRATLVYTQRCKEAWKDVPVILGGIEASLRRTAHYDYWSDTVRRSVLVDSKADMLMFGNGERPLVEVAHRLAMGEPISEIRDVRNTAIIVKEALPGWSGVDSTRLDTPGKIDPIPHPYGEDLPCADNKPVAPKKQEAKAVTVQPPRPKPWEKTYVLLPSFEKVKGDKVLYAHASRILHHETNPGCARALMQKHGDRYVWINPPAIPLSTEEMDSVFALPYKRVPHPAYGNARIPAYEMIRFSVNIMRGCFGGCSFCSITEHEGRIIQSRSEDSIINEIEAIRDTVPGFTGVISDLGGPTANMYMLRCKSPRAEQTCRRLSCVYPDICPHMDTNHEPTINLYRRARDLKGIKKILIASGVRYDIAVEDPRYIKELATHHVGGYLKIAPEHTEEGPLSKMMKPGMGSYDRFKELFDTYSKQAGKEQYLIPYFISAHPGTRDEDMVNLALWLKKHRFRLDQVQNFYPSPLANSTTMYYTGKNPLAKIGYKSEDVFVPKGDKQRRLHKALLRYHDPANWPLIRQALEAMGKKHLIGSRRDCLVPAPTIEEMREARRQNRNTRPALTKHTPMATQRQTPATAKKASSTQSRPVNAGAKKRPKAAVGR |  |  |  |  | 1.72 | 5.41 ± 1.1 | 0.614 | 0.206 |  | 1.08 |  | 
6 | MSSKVEQLRAQLNERILVLDGGMGTMIQSYRLNEADFRGERFADWPCDLKGNNDLLVLSKPEVIAAIHNAYFEAGADIIETNTFNSTTIAMADYQMESLSAEINFAAAKLARACADEWTARTPEKPRYVAGVLGPTNRTASISPDVNDPAFRNITFDGLVAAYRESTKALVEGGADLILIETVFDTLNAKAAVFAVKTEFEALGVELPIMISGTITDASGRTLSGQTTEAFYNSLRHAEALTFGLNCALGPDELRQYVQELSRIAECYVTAHPNAGLPNAFGEYDLDADTMAKQIREWAQAGFLNIVGGCCGTTPQHIAAMSRAVEGLAPRKLPEIPVACRLSGLEPLNIGEDSLFVNVGERTNVTGSAKFKRLIKEEKYSEALDVARQQVENGAQIIDINMDEGMLDAEAAMVRFLNLIAGEPDIARVPIMIDSSKWDVIEKGLKCIQGKGIVNSISMKEGVDAFIHHAKLLRRYGAAVVVMAFDEQGQADTRARKIEICRRAYKILTEEVGFPPEDIIFDPNIFAVATGIEEHNNYAQDFIGACEDIKRELPHALISGGVSNVSFSFRGNDPVREAIHAVFLYYAIRNGMDMGIVNAGQLAIYDDLPAELRDAVEDVILNRRDDGTERLLELAEKYRGSKTDDTANAQQAEWRSWEVNKRLEYSLVKGITEFIEQDTEEARQQATRPIEVIEGPLMDGMNVVGDLFGEGKMFLPQVVKSARVMKQAVAYLEPFIEASKEQGKTNGKMVIATVKGDVHDIGKNIVGVVLQCNNYEIVDLGVMVPAEKILRTAKEVNADLIGLSGLITPSLDEMVNVAKEMERQGFTIPLLIGGATTSKAHTAVKIEQNYSGPTVYVQNASRTVGVVAALLSDTQRDDFVARTRKEYETVRIQHGRKKPRTPPVTLEAARDNDFAFDWQAYTPPVAHRLGVQEVEASIETLRNYIDWTPFFMTWSLAGKYPRILEDEVVGVEAQRLFKDANDMLDKLSAEKTLNPRGVVGLFPANRVGDDIEIYRDETRTHVINVSHHLRQQTEKTGFANYCLADFVAPKLSGKADYIGAFAVTGGLEEDALADAFEAQHDDYNKIMVKALADRLAEAFAEYLHERVRKVYWGYAPNENLSNEELIRENYQGIRPAPGYPACPEHTEKATIWELLEVEKHTGMKLTESFAMWPGASVSGWYFSHPDSKYYAVAQIQRDQVEDYARRKGMSVTEVERWLAPNLGYDAD | 3.31 ± 0.087 | 5.05 ± 0.14 | 3.489 ± 0.028 | 5.43 ± 0.51 | 9.81 ± 0.4 | 5.12 ± 0.36 | 3.96 ± 0.33 | 2.73 ± 0.051 | 8.09 ± 0.26 | 4.3 ± 0.33 | 3.71 ± 0.047 | 5.48 ± 0.14
